Assay results reported in paper PMC6398215.

Target: IgG
Assay: not stated; equilibrium affinity of recombinant CHO FcγRIIIa for IgG, before and after enzymatic desialylation; method and conditions only in the supplement (Fig. S16)

## enzymatically desialylated recombinant FcγRIIIa expressed in CHO cells (from UniProt P08637 17-254) (receptor)
  fold increase in equilibrium affinity against the untreated FcγRIIIa: 2 fold
